Reference: patent publication US20250136708A1 (YEDA RESEARCH AND DEVELOPMENT, published 2025)

Key:
[1] = biological target: T1, mouse ATP6V1B2 on the surface of senescent mouse lung fibroblasts (CCL-206) (mouse, UniProt P62814 1-511); assay: FACS, non-permeabilized senescent CCL-206 cells, antibody at 10 ug/ml
T1 construct: whole, on cells; Endogenous protein on mouse cells
Description: Surface binding was examined in non-permeabilized cells using FACS. FIG. 4A: antibody 2G05.
(§1) Control, growing IMR-90 or CCL-206 cells were seeded 24h prior to testing day. On testing day, the medium was aspirated, and cells were gently detached using warm TrypLE Express solution (Thermo Fisher Scientific) followed by the addition of cold FACS buffer (PBS/5% FBS). ATP6V1B2 antibodies were added to the tubes containing the cells and the tubes were incubated for 60-70 minutes at 4C and centrifuged. Antibodies 2G05, 2E11 and 4G06 were tested at 10 ug/ml. Commercial antibodies-LS-B13421 (LS Bio), ab200839 (Abcam), and SC-55544 (Santa Cruz) were used at 20 ug/ml. Two hundred fifty ul of secondary antibody (anti mouse Alexa 647, Jackson 115-605-146 diluted in FACS buffer 1:300) were added and the tubes were incubated for 40 minutes at 4 C. Following incubation, 600 ul FACS buffer supplemented with DAPI (diluted 1:20,000) were added to each tube and the tubes were centrifuged. Cell pellets were resuspended in 200 ul FACS buffer. The samples were analyzed using GUAVA Flow Cytometry analyzer. Data was analyzed using the FCSalyzer 0.9.18-alpha software. Duplicates and dead cells (DAPI positive cells) were excluded.

[2] = biological target: T2, human ATP6V1B2 on the surface of senescent human cells (IMR-90 lung fibroblasts, IPF lung fibroblasts, A549 … (human, UniProt P21281 1-511)); assay: FACS, non-permeabilized senescent IMR-90 cells, antibody at 10 ug/ml
T2 construct: whole, on cells; Endogenous protein on cells; also called surface ATP6V1B2; surface protein expressed in senescent human lung fibroblasts
Description: as §1

T1 sequence (P62814 whole entry): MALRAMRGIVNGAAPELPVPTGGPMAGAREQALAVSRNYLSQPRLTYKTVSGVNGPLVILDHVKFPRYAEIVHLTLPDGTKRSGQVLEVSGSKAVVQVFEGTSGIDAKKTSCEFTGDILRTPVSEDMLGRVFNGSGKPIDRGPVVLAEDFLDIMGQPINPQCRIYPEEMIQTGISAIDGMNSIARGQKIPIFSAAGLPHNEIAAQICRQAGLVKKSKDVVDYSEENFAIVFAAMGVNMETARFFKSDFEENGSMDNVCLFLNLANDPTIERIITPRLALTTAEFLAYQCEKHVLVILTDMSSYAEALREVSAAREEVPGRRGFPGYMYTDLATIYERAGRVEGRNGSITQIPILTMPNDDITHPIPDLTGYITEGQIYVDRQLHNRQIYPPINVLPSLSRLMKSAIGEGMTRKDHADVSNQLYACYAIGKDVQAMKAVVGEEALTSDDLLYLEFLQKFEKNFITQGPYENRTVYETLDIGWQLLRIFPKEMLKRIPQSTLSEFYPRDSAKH
T2 sequence (P21281 whole entry): as the sequence (P62814 whole entry) above, with M25A, A26V, K460R, T464A, Y474F counted along it

- binding result [1]: binds
- binding result [2]: binds
B1: anti-ATP6V1B2 antibody 2E11 (antibody, V domains shown)
VH: EVQLQQSGAELVKPGASAKMSCRAPGYTFTSYWITWVKQRPGQGLEWIGDIYPGSGSTNYNEKFKTKATLTVDTSSSTAYMQLSSLTSEDSAVYYCAELGTFDYWGQGTTLTVST
VL: DVVVTQTPLSLPVSLGDQASISCRSSQSLVHSNGNTYLHWYLQKPGQSPKLLIYKVSNRFSGVPDRFSGSGSGTDFTLKISRVEAEDLGVYFCSQSTHVPYTFGGGTKLEIK
notes: detection was with an anti-mouse secondary antibody
